In the domain aggregation screens of Martell et al. (2025):

Test: soluble fraction after stress (log2 fold change); higher = more stays soluble; pooled small domains, quantitative proteomics
Settings: stress: 50 degC
How it was run: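 After stress at 50°C, the amount of each protein still soluble was measured. This was done on pooled custom libraries of small protein domains, using high-throughput quantitative proteomics. The figure given is a base-two log fold change and stands for aggregation propensity, with higher values meaning more protein stays in solution.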

Row | Sequence | soluble fraction (log2)
1 | HMATRLPFGFAKRFGVLVEGKDDQITVYHKDGLQTAVILEIQRYLARPFRFEAVTPEEFERRLGLAYQS | -0.808
2 | HMLMTGSLQTKHGKYYVVVRIPDGLGNTKAKWINTGIPTDGNNKRKAQQRRIEILTELEENKD | -1.84
3 | HMSAEDYLERIHELIESKGTAHVADIAQSLGVGKPSVTSMVQKLADEGYLNYEKYRSLTLTDSGRSIA | 0.105
4 | HMPEPAPALPAKTRVSIRRETGGIIWHEGAWTISPPIRAYDGRWYVAVTTARKGIEFVPVSSVIRS | -1.07
5 | HMIEKVNDYVVRFANVNGTGSASANNLFALAIYRMGVPVTPKNIFPSNIQGLPTWFEVRVSGSGYLARRG | 0.01
6 | HMEGFSAGQFVRASVDNTAFYLKRPKGDAVADKLLRRGASMKVISASGDYLKVELDSGEVGFVPPVMVE | 0.05
7 | HMLRQVSDSNALETAVKKVLDANPEEVERYKSGNKKLISFFVGQTMKATKGAGNPKEINSILAKLL | 0.0186
8 | HMHEHWDGSGFPKHLRGANIPLGARVIAVADTYDSITSSRAYRAGSTHEAAEREMRRVSGTQLDPE | 0.137
9 | HMESAVDVFRSILKEKGVTEEEVRQVVAARGKYTLETPIDDYPNEFLYGYVIRYWDQIFDIIQQSREAK | -0.321
10 | HMPGEATVPSVIGMTKAEAKAKLQASGFELGYSEFVASDKPKGEIVEQDPGAGETAKGGTEVNVKISDGS | -0.0145
11 | HMDRSLYVGDAVGFDSARGLMEIEVKNKFSVVAVSLKKKPSGNFITPLLRMEKKKGEAVTVAPGSGHR | -0.33
12 | HMHFENEETFVLPLVREGFSEQQQLEMVDRLLFDANTDNPRWIIDWMASELPSTQRELLLDLEKRLAEVRS | -0.117
13 | HMFDLDIEQIANDLKHGVMPNLYGLSLQDALYLLEAKGIRVKVAGSGSVVNQSIKTGAYVGSGSVLKLEL | -1.26
14 | HMIHQIPVNVQKIRQIIGINLNENDYLNYLAKLGFVIDEGLIIVPSFRSDVKTQNDLAEEIARV | -0.444
15 | HMSIAEMSGARKSAILLLALDEDSAAEIFKYLSAGEVQEISMEMAKLNQVSHDDMKAVLEAFHKETEEFV | -0.542
16 | HMDAMLSEQLREKRGELLIEVDAIAGNALRWATLSAEQQDAWAVYRQALLDVPQQAGFPNDVVWPINPN | -0.352
17 | HMKQTFGAMLAALRKEKGMTQLELAEQMGVTDKAVSKWERDLSFPDVTSLPRLAEILEVSVDELMQ | -0.0444
18 | HMKDGMRVYITYHDSEEEPEKPIGDGTTKGWHTNSTASVVWISQKVAESADLGIWGDPIRIKGEA | -0.14
19 | HMASPEIAFLNKFYQLSNTVNEISVMKIVKNYQEKYQQRISIEQMAKTLKTMGYAVRNNIISNIEEAPV | -1.3
20 | HMKEQYTELDWDKVQVNDKVMIKDLNQQVTILSLPDKNNALYIQMGMIKTKVKKEKLAVYNPQLA | -0.185
21 | HMTATSKKAAWDEVNKIFPTDYERSAAESERAGYAIFRSTAEGVNAWISDLGDRLEINLPDGKTVNIWIEE | -0.282
22 | HMQISDEGELSGIVRKIIDANPQSVADYKAGKKKAIGFLVGQIMIETKGRANPASVNELLIKKLE | -0.0642
23 | HMSEMDNMEWVREQYFQNMIYEIGEWVRDKKTGIVGEVVKRGTNYVTVVQEDFSLHKIWLEDLETTEK | -0.821

Row | Sequence | soluble fraction (log2)
24 | HMTDYREILRLLSLGLSRTQIADSLNVSRTTVIHTLQRAVAQELDWQTAEGMSDRELVAKLFPV | -3.47
25 | HMNMVEESVKKSSQWAVFEPNTISTWVKIQAMIENYLYQKWKEGALAGAKPEHAFFVKVGLGETM | 0.163
26 | HMNNFTPEHLEKDIEGSLFFRRLKETAREEPGSLTVAQKDFIQMWHDQADGVYTLRQVFVQTAFDHVRSL | 0.1
27 | HMKKSRLHSVLEEIPGIGEKRRKILIKHFGTVEAIKKSSLEELARIKGMNRRAAQNVLEYLK | -0.0583
28 | HMRRVEDVRTALEHFAAARNTTPMAMTLDQRREAMRELAASGLLNLRRALSEVAQTLGVARSTVYTYLP | -0.84
29 | HMKNEYAMVIQVNGKLRGNMLVSADLEQKDIERMALDNEDIKRFISHENDVKKMIFVPKKLINIVT | -0.351
30 | HMHSPTFYVHVVGQVKVPGVYELEVGSRLFDAVIAAGGFKDDADQASVNLARPLSDGEQIVVLKLGDQ | -0.251
31 | HMSLSISSLVFFRKNAGLTQADIATAMSITQSAVARLEKRLLSDSDVTLKTLERYAEAVGIRMHVDFEP | -0.0207
32 | HMRGAARRDRAVGERAVSKDTILDATRALLRKGSALEIRAIDIAEESGLSRQTVFQYYPVIRLIFFELSD | 0.138
33 | HMKGLDRATNKALLLKHIIDNGSTGTRFSELRQVLPSLTRGSISSLLIELRSEGKIHSIGVTRNARWYPTE | -1.07
34 | HMESLGEKIKNIRISNNLKQSELADILHISEKTISSWENNRTTPDLNMIYKISNYFKKSFYYLISDDYI | -1.02
35 | HMTEAVYMPALQNKTLEEAQRIVEQYDLELEYTYEANAQVEEGRILSQTPQMGVLVERGEKVQAVVSLG | 0.571
36 | HMTMEFGEFLAKLRKERGYYQKEVAAYLNVTVATISNYEKNVHAPDLDTLVKLADFYDVSTDYLLQRT | -2.98
37 | HMKITTKNYFKAIAEVGVENLPAALKKSHDLIEERTSKGADWSVYEHDAEVRRVFDLTFEKLFEFIDQ | -0.363
38 | HMNLQAYQSVLDKLNEEYGTTFRFPTEEELHEVGLTNTVDPRTATVSATEFEKYMRPIAERISQANL | -0.00884
39 | HMNQSYQLWIKDDELGPTPRSVGVLNEHFEVDPAALTNYDAELLRRATFGISLEPRGGSPTGQP | -0.0224
40 | HMIRQGTKQALLIEMLQRPEGASITEIVEATSWQAHTARGAISGALKKKLGLPITSEKHPERGTVYKL | -0.685
41 | HMEDPPISQEQRQALFKMAHDHLGKDEGNKAILTLIQSHGLNSTTGMKVSTYNTIMEELVSTIQSLAA | -0.0686
42 | HMDILEVLIKKDLAMELLEQLTERQRTVVYLRYFYQLNQKEIADYLGISQQRVSEILSRAKAVLTAYTKK | -1.43
43 | HMRKDEFLQTLRRALNGNVPPRVVEENVRYYDGYISDEVRKGRSEEEVIEEIGDPRLIARTIEDTT | 0.0826
44 | HMTGIQDVPALETRRVGNTFFFDRATDVQVYDLQGRLLQQARKVTSVSIGHLQQGVYVLTDGRASVKVQ | -1.23
45 | HMLVGGPDTPSKVTVSFDLGSRQAVDELTERAGAAGGRIGDIDDYPFMYQRQFDDPDGYHYSPFWMKP | -0.149
46 | HMANSLLVTAQAGGQKLFNFLKRSLHAENNEIHRWIRTGQVRINKKRTKAFDIVHENDEIRIPPFALNR | -0.284

Row | Sequence | soluble fraction (log2)
47 | HMAKIEVENLEETILENLKANNGFMPYNDKTSPEEIYEVFHVSKKHFKNSLGGLMKKGLIFQNEKGTKL | -0.0312
48 | HMEYYDDEELDRFRGVEADAYDEDAVNEFRDVLYTLQEIEVAGWLRSLQLRAINLPDELKDEAFLI | -1.64
49 | HMKYGPSTVAVLTVVRESEMGAFLDAETGRTNDDILLHKTQQTEPVHIGDQVKVFLYLDPKHRLTASMRVP | -1.16
50 | HMSAMSPTEVGERLRLAREAVRMTQKQAADAISVARTTLVAIEQGQRRVRIDELQQLAKTYGVSVNAILR | -0.757
51 | HMNEKGTNSTINEITRISKPGRRVYVGSAEIPKVKSGRGLVLISTSKGVMTGAEAAKAKLGGELLLKV | 0.0901
52 | HMTHSEYVGRHGIAATSLRPAGAATIDGSRVDVVTSGEYIEKGTPIEVMTVNGSTVRVKAVPQIP | 0.0508
53 | HMPPDLSEAIQKRIEGKTDEALEILRKLYNEYPESTEIITMLGRTLLDAEEYALAAFRLEQALDLGG | -0.569
54 | HMDLFLVYQFIRRLATPFTEWKAHELGIIDDKGVQLKKRRDFTTREEKDAYGIFDIMITKLKRLIEKV | -0.255
55 | HMDLLAESLTRREAEVAALAARGLTNRAIAELFGLSVRTAETHLHRAMGKLGANRREDLLLHADRLDPG | -0.629
56 | HMDVLSQYGSRGEEVGKIQTRLKSWGYFSGEVTGYYGSQTTEAVKRFQQKHGLSATGVADRKTLELIGIS | -0.108
57 | HMSQITEADYIPNTDKTWGELMEETGESLPNLVERYNNEMTKSNGKEQPQSIIQRIIEDYQMVS | 0.0384
58 | HMSESEDFQNRWRPWRSLLDDETPVVREALVDQLKLFPEEGRLFLQQMSEEDDPISARHAFELIKSLGW | -0.132
59 | HMISSKDIINDEDGARLGKIADVEIDVATGKILSVHVYRSFKLLHLFGNKDVVQIPWNKIMKIGSDVVIVE | -0.0123
60 | HMNTLSPVRILAILDGRSSMAEWQLAEELGVSIDNLSEILNKMSTDGQIRLVPSEDGRMVVP | 0.265
61 | HMDVKPWERQEGESAKAFEAFTIYAGLGADRSLRAVAQQLGKSKTLMDRWSSTYSWVARAAEYDADLQRK | -0.575
62 | HMAPAPYLVKVTANKLNIRSGPGTNYKIQGAITDKGTYTIVDTQGRWGKLKSGAGWIYLNYTKK | -1.9
63 | HMRQPRGQRVTVREASSLLPFLFAHLTDRSRSAVKSLLRHGQIWVNGRVTTHFDMPLRPGDTVLISHERG | -0.347
64 | HMSGILINGELYKPGEQMSLKQRLSIQARIQMQGEDTVKPEMLKDFYNSGGPLSKEESSEYMKSQN | -0.153
65 | HMDLDIQNYNLDEILELFKVSYDFDETELKKAHKMYLMTHPDKSNLNPNIFLFFVQAYDILRKLYEFR | -0.468
66 | HMEDVDLFTKAMAALPNRYRDILLLRYSHGYTVEEISDILSMKPENVKKTIQRARKKLGEILEAEG | -0.654
67 | HMLEKVLDNHIHKLRLQHKISQQELADAIGVSRKTISTVETGRFTPSVVIALKIAAHFSVSVEQVFTL | -0.964
68 | HMSEPHPPFQVVAQFPYKSEYEDDLNFEKDQIITVTSIEDDEWYYGDFKNKGGELVEGIFPKSFVTVK | -0.403
